Source: US20220056104A1 (Janssen / Centocor, published 2022)
Changes are numbered by the printed parent chain. Numbers in names are those of the source.

B1: TL1W2 (His-TEV-hTL1A 72-251) (ligand)
chain: HHHHHHENLYFQGLKGQEFAPSHQQVYAPLRADGDKPRAHLTVVRQTPTQHFKNQFPALHWEHELGLAFTKNRMNYTNKFLLIPESGDYFIYSQVTFRGMTSECSEIRQAGRPNKPDSITVVITKVTDSYPEPTQLLMGTKSVCEVGSNWFQPIYLGAMFSLQEGDKLMVNVSDISLVDYTKEDKTFFGAFLL
notes: Non-covalent trimer; entry holds the His-TEV tag; also called His-TL1A; His-TL1A (TL1W2)
B2: TL1W45 (His-TEV-TL1A E190F) (ligand)
chain: B1 chain with E132F
notes: also called TL1W45 (E190F)
B3: TL1W80 (His-TEV-TL1A K111A) (ligand)
chain: B1 chain with K53A
notes: also called TL1W80 (K111A)
B4: TL1W109 (His-TEV-TL1A S187L) (ligand)
chain: B1 chain with S129L
notes: also called TL1W109 (S187L)
B5: TL1W38 (His-TEV-TL1A L123K) (ligand)
chain: B1 chain with L65K
notes: also called TL1W38 (L123K)
B6: TL1W92 (His-TEV-TL1A M158Y) (ligand)
chain: B1 chain with M100Y
notes: also called TL1W92 (M158Y)
B7: TL1W122 (His-TEV-TL1A N207F) (ligand)
chain: B1 chain with N149F
notes: also called TL1W122 (N207F)
B8: TL1W95 (His-TEV-TL1A Q167A) (ligand)
chain: B1 chain with Q109A
notes: also called TL1W95 (Q167A)
B9: TL1W136 (His-TEV-TL1A K240F) (ligand)
chain: B1 chain with K182F
notes: also called TL1W136 (K240F)
B10: TL1W131 (His-TEV-TL1A Y238E) (ligand)
chain: B1 chain with Y180E
notes: also called TL1W131 (Y238E)
B11: TL1W125 (His-TEV-TL1A N207E) (ligand)
chain: B1 chain with N149E
notes: also called TL1W125 (N207E)
B12: TL1W132 (His-TEV-TL1A T239A) (ligand)
chain: B1 chain with T181A
notes: also called TL1W132 (T239A)
B13: TL1W127 (His-TEV-TL1A Y238A) (ligand)
chain: B1 chain with Y180A
notes: also called TL1W127 (Y238A)
B14: TL1W129 (His-TEV-TL1A Y238K) (ligand)
chain: B1 chain with Y180K
notes: also called TL1W129 (Y238K)
B15: TL1W137 (His-TEV-TL1A K240S) (ligand)
chain: B1 chain with K182S
notes: also called TL1W137 (K240S)
B16: TL1W126 (His-TEV-TL1A F209W) (ligand)
chain: B1 chain with F151W
notes: also called TL1W126 (F209W)
B17: TL1W19 (His-TEV-TL1A-TL1A-TL1A) (ligand)
chain: HHHHHHENLYFQGAPLRADGDKPRAHLTVVRQTPTQHFKNQFPALHWEHELGLAFTKNRMNYTNKFLLIPESGDYFIYSQVTFRGMTSECSEIRQAGRPNKPDSITVVITKVTDSYPEPTQLLMGTKSVCEVGSNWFQPIYLGAMFSLQEGDKLMVNVSDISLVDYTKEDKTFFGAFLLAPLRADGDKPRAHLTVVRQTPTQHFKNQFPALHWEHELGLAFTKNRMNYTNKFLLIPESGDYFIYSQVTFRGMTSECSEIRQAGRPNKPDSITVVITKVTDSYPEPTQLLMGTKSVCEVGSNWFQPIYLGAMFSLQEGDKLMVNVSDISLVDYTKEDKTFFGAFLLAPLRADGDKPRAHLTVVRQTPTQHFKNQFPALHWEHELGLAFTKNRMNYTNKFLLIPESGDYFIYSQVTFRGMTSECSEIRQAGRPNKPDSITVVITKVTDSYPEPTQLLMGTKSVCEVGSNWFQPIYLGAMFSLQEGDKLMVNVSDISLVDYTKEDKTFFGAFLL
notes: Single-chain trimer, three TL1A copies in one chain; also called His-scTL1A; His-scTL1A (TL1W19)
B18: TL1W35 (C202S) (ligand)
chain: B1 chain with C144S
B19: TL1W34 (C162S, C202S) (ligand)
chain: B1 chain with C104S, C144S
notes: also called TL1A-C162S, C202S; C162S, C202S TL1A variant

Target: T1, DcR3 (UniProt O95407 30-300, limits assumed)
T1 construct: the construct is not described; also called decoy receptor DcR3; TNFRSF6B
T1 sequence (looked up): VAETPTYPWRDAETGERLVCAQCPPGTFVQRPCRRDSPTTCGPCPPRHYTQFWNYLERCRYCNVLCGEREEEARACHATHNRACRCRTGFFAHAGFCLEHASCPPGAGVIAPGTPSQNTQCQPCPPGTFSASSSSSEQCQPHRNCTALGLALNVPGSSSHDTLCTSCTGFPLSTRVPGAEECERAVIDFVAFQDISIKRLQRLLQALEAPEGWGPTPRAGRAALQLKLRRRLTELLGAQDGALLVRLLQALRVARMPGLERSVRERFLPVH
Assay: ELISA, DcR3

Compared with B1, B2 is 4.6-fold higher in EC50: 4.6 nM for the first, 21.2 nM for the second.

B3 and B4 are within 1.5-fold of each other in EC50: 89.8 nM for the first, 85.5 nM for the second.

First: B5
Second: B6
The EC50 of the first is 2.8-fold lower: 24.7 nM for the first, 69.2 nM for the second.

Compared with B7, B8 is 3-fold higher in EC50: 58.5 nM for the first, 176 nM for the second.

For B1, the “Rel EC50” value was 1 ratio.

Target: T1, DcR3
Assay: ELISA, DcR3
Remark: another data set of the same source

First: B1
Second: B3
The EC50 of the first is 3.5-fold lower: 4.6 nM for the first, 16.3 nM for the second. The first is the more potent here.

First: B4
Second: B9
The EC50 of the first is 11-fold lower: 15.5 nM for the first, 178 nM for the second.

B10 and B11 are within 1.5-fold of each other in EC50: 6.6 nM for the first, 9.8 nM for the second.

Compared with B12, B13 is 3.1-fold lower in EC50: 27.2 nM for the first, 8.9 nM for the second. The second is the more potent here.

Compared with B5, B14 is 2.7-fold lower in EC50: 24.7 nM for the first, 9 nM for the second. The second is the more potent here.

B6 and B15 are within 1.5-fold of each other in EC50: 12.6 nM for the first, 11.8 nM for the second.

B7 and B16 are within 1.5-fold of each other in EC50: 10.6 nM for the first, 13.7 nM for the second.

Binder B8 has an EC50 of 32 nM.

Compared with B1, B3 is higher in “Rel EC50” value: 1 ratio (head: nM) for the first, 3.5 ratio (head: nM) for the second.

First: B4
Second: B9
The “Rel EC50” value of the first is lower: 3.4 ratio (head: nM) for the first, 38.7 ratio (head: nM) for the second.

Compared with B10, B11 is higher in “Rel EC50” value: 1.4 ratio (head: nM) for the first, 2.1 ratio (head: nM) for the second.

Going from B12 to B13, the “Rel EC50” value falls from 5.9 ratio (head: nM) to 1.9 ratio (head: nM).

Going from B5 to B14, the “Rel EC50” value falls from 5.4 ratio (head: nM) to 2 ratio (head: nM).

Going from B6 to B15, the “Rel EC50” value falls from 2.7 ratio (head: nM) to 2.6 ratio (head: nM).

First: B7
Second: B16
The “Rel EC50” value of the first is lower: 2.3 ratio (head: nM) for the first, 3 ratio (head: nM) for the second.

In the case of B8, the “Rel EC50” value is reported as 7 ratio (head: nM).

Target: T2, Recombinant DR3-Fc (R&D Systems, cat. #943-D3) (UniProt Q93038 25-199, limits assumed)
T2 construct: dimeric MW~92 kDa; also called DR3 receptor; Fc-DR3; not shown: Fc part of the bought fusion
T2 sequence (looked up): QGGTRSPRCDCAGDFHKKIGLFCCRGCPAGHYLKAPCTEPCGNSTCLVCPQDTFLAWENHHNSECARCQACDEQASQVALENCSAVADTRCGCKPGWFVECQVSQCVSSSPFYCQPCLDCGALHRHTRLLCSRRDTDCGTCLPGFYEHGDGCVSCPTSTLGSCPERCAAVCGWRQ
Assay: ELISA, DR3-Fc immobilized
Summary of the method: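 DR3-Fc (10 μg/mL) was coated overnight at 4 °C, blocked with casein, then incubated overnight at 4 °C with TL1A variants from 25 μg/mL in 3-fold dilutions. Bound TL1A was detected with biotinylated rabbit anti-human TL1A and streptavidin-HRP, read by chemiluminescence; triplicates, errors as standard error.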

B1 and B2 are within 1.5-fold of each other in EC50: 26.2 nM for the first, 31.4 nM for the second.

First: B3
Second: B4
The EC50 of the first is 1.7-fold higher: 30 nM for the first, 17.7 nM for the second. The second is the more potent here.

B9 and B10 are within 1.5-fold of each other in EC50: 266 nM for the first, 300 nM for the second.

Going from B11 to B12, the EC50 falls from 506 nM to 144 nM (3.5-fold). The second is the more potent here.

First: B13
Second: B5
The EC50 of the first is 160-fold higher: 4620 nM for the first, 29.5 nM for the second.

Going from B14 to B6, the EC50 falls from 446 nM to 16.6 nM (27-fold). The second is the more potent here.

Going from B15 to B7, the EC50 falls from 336 nM to 30.2 nM (11-fold). The second is the more potent here.

Going from B16 to B8, the EC50 falls from 56.8 nM to 17.1 nM (3.3-fold). The second is the more potent here.

Going from B1 to B2, the “Rel EC50” value rises from 1 ratio (head: nM) to 1.2 ratio (head: nM).

Going from B3 to B4, the “Rel EC50” value falls from 1.1 ratio (head: nM) to 0.7 ratio (head: nM).

First: B9
Second: B10
The “Rel EC50” value of the first is lower: 10.1 ratio (head: nM) for the first, 11.5 ratio (head: nM) for the second.

First: B11
Second: B12
The “Rel EC50” value of the first is higher: 19.3 ratio (head: nM) for the first, 5.5 ratio (head: nM) for the second.

Compared with B13, B5 is lower in “Rel EC50” value: 176 ratio (head: nM) for the first, 1.1 ratio (head: nM) for the second.

First: B14
Second: B6
The “Rel EC50” value of the first is higher: 17 ratio (head: nM) for the first, 0.6 ratio (head: nM) for the second.

First: B15
Second: B7
The “Rel EC50” value of the first is higher: 12.8 ratio (head: nM) for the first, 1.2 ratio (head: nM) for the second.

Going from B16 to B8, the “Rel EC50” value falls from 2.2 ratio (head: nM) to 0.7 ratio (head: nM).

Target: T2, Recombinant DR3-Fc (R&D Systems, cat. …)
Assay: ELISA, DR3-Fc immobilized
Remark: another data set of the same source
Method: (§1) All ELISA-based measurements were collected in triplicate, and error values report the standard error between measurements. Recombinant DR3-Fc (R&D Systems, cat. #943-D3), dimeric MW˜92 kDa, was non-specifically immobilized onto plates (Nunc maxisorp, cat. #436110) in 100 μL DR3-Fc, diluted to 10 μg/mL onto a 96-well White Maxisorp plate (Nunc, cat #436110) (O/N, 4° C.). Plates were block for 1 hour at room temperature with 250 μl/well of casein buffer and blocking buffer was removed. 50 μL of TL1A variants were diluted in StartingBlock PBS (Thermo Fisher Scientific), at 25 μg/mL, diluting 3× over each well, according to the plate map description for 20160623) per well on a 96-well White Maxisorp plate (Nunc, cat #: 436110) (overnight at 4° C.).
(§2) Plates were washed three times with TBST. 100 μl/well polyclonal rabbit anti-human TL1A-biotin antibody (diluted 1:1000 in Starting Block PBS) was added and plates were incubated for 1 hour at room temperature with shaking at 150 rpm. TL1A-biotin antibody was removed and 100 μl/well streptavidin-HRP conjugate (diluted 1:10,000 in Starting Block PBS) was added to plates. […] 100 μl/well POD Chemiluminescence substrate (Roche, cat #: 11582950001) was added immediately prior to reading plate luminescence using a Molecular Devices M5 plate reader with a delay setting of 100 ms.

Going from B1 to B17, the EC50 rises from 6.8 nM to 27.3 nM (4-fold).

Target: T2, Recombinant DR3-Fc (R&D Systems, cat. …)
Assay: ELISA

For B17, the “fold weaker EC50 than other molecules” value was about 3 fold.

Target: T2, Recombinant DR3-Fc (R&D Systems, cat. …)
Assay: ELISA, TL1A construct immobilized, DR3 titrated

For B1, the EC50 was 2.5 nM.

Target: T2, Recombinant DR3-Fc (R&D Systems, cat. …)
Assay: ELISA (FIG. 4C)
Method: as §1, §2

B18: no binding.
B19: no binding.

Target: T2, Recombinant DR3-Fc (R&D Systems, cat. …)
Assay: ELISA, DR3-Fc immobilized
Remark: another data set of the same source
Method: as §1
Plates were washed three times with TBST. 100 μl/well polyclonal rabbit anti-human TL1A-biotin antibody (diluted 1:1000 in Starting Block PBS) was added and plates were incubated for 1 hour at room temperature with shaking at 150 rpm. TL1A-biotin antibody was removed and 100 μl/well streptavidin-HRP conjugate (diluted 1:10,000 in Starting Block PBS) was added to plates. Plates were incubated for 1 hour at room temperature with shaking at 150 rpm. Plates were washed three times with TBST. 100 μl/well POD Chemiluminescence substrate (Roche, cat #: 11582950001) was added immediately prior to reading plate luminescence using a Molecular Devices M5 plate reader with a delay setting of 100 ms.
These combination mutants were tested for binding to DR3 and DcR3 (FIGS. 5E and 5F, respectively).

B1 and B2 are within 1.5-fold of each other in EC50: 26.2 nM for the first, 31.4 nM for the second.

Compared with B3, B4 is 1.7-fold lower in EC50: 30 nM for the first, 17.7 nM for the second. The second is the more potent here.

Going from B5 to B6, the EC50 falls from 29.4 nM to 16.6 nM (1.8-fold). The second is the more potent here.

Going from B7 to B8, the EC50 falls from 30.2 nM to 17.1 nM (1.8-fold).

Going from B1 to B2, the “Rel EC50” value rises from 1 ratio to 1.2 ratio.

First: B3
Second: B4
The “Rel EC50” value of the first is higher: 1.1 ratio for the first, 0.7 ratio for the second.

First: B5
Second: B6
The “Rel EC50” value of the first is higher: 1.1 ratio for the first, 0.6 ratio for the second.

Going from B7 to B8, the “Rel EC50” value falls from 1.2 ratio to 0.7 ratio.
